To fix the notation:
B1: Protein S100-G, residues 1 to 79; numbered along this chain, P02633 (parent)
chain: MSAKKSPEELKGIFEKYAAKEGDPNQLSKEELKLLLQTEFPSLLKGPSTLDELFEELDKNGDGEVSFEEFQVLVKKISQ

Drawing on the Human Domainome abundance scans (Beltran et al. 2025), this text covers abundance fitness for 35 variants.

± gives the uncertainty stated by the source.

This series covers variants of B1. The experiment in a line: abundance fitness (aPCA) (normalised: wild type 0, dead -1); higher = more abundant; growth selection in yeast, the domain comes from the species named. As to conditions: Bos taurus.
In the case of MSAKKSPEELKGIFEKYAAKEGDPNQLSKEELKLLLQTEFMSLLKGPSTLDELFEELDKNGDGEVSFEEFQVLVKKISQ [P41M], the abundance fitness was -0.091 ± 0.085.
As to MSAKKSPEELKGIFEKYAAKEGDPNQLSKEELKLLLQTEFYSLLKGPSTLDELFEELDKNGDGEVSFEEFQVLVKKISQ [P41Y], the abundance fitness was -0.037 ± 0.09.
As to MSAKKSPEELKGIFEKYAAKEGDPNQLSKEELKLLLQTEFFSLLKGPSTLDELFEELDKNGDGEVSFEEFQVLVKKISQ [P41F], the abundance fitness was -0.019 ± 0.098.
Turning to MSAKKSPEELKGIFEKYAAKEGDPNQLSKEELKLLLQTEFLSLLKGPSTLDELFEELDKNGDGEVSFEEFQVLVKKISQ [P41L], the abundance fitness was -0.072 ± 0.065.
MSAKKSPEELKGIFEKYAAKEGDPNQLSKEELKLLLQTEFVSLLKGPSTLDELFEELDKNGDGEVSFEEFQVLVKKISQ [P41V]: the abundance fitness is -0.129 ± 0.069.
For MSAKKSPEELKGIFEKYAAKEGDPNQLSKEELKLLLQTEFHSLLKGPSTLDELFEELDKNGDGEVSFEEFQVLVKKISQ [P41H], the abundance fitness was 0.066 ± 0.088.
Under MSAKKSPEELKGIFEKYAAKEGDPNQLSKEELKLLLQTEFASLLKGPSTLDELFEELDKNGDGEVSFEEFQVLVKKISQ [P41A] stands 0.079 ± 0.074; under MSAKKSPEELKGIFEKYAAKEGDPNQLSKEELKLLLQTEFRSLLKGPSTLDELFEELDKNGDGEVSFEEFQVLVKKISQ [P41R], -0.059 ± 0.066.
As to MSAKKSPEELKGIFEKYAAKEGDPNQLSKEELKLLLQTEFNSLLKGPSTLDELFEELDKNGDGEVSFEEFQVLVKKISQ [P41N], the abundance fitness is -0.06 ± 0.081.
Under MSAKKSPEELKGIFEKYAAKEGDPNQLSKEELKLLLQTEFTSLLKGPSTLDELFEELDKNGDGEVSFEEFQVLVKKISQ [P41T] stands 0.001 ± 0.073.
Consider MSAKKSPEELKGIFEKYAAKEGDPNQLSKEELKLLLQTEFDSLLKGPSTLDELFEELDKNGDGEVSFEEFQVLVKKISQ [P41D], for which the abundance fitness was -0.021 ± 0.092.
For the variant MSAKKSPEELKGIFEKYAAKEGDPNQLSKEELKLLLQTEFPSALKGPSTLDELFEELDKNGDGEVSFEEFQVLVKKISQ [L43A], the abundance fitness was 0.013 ± 0.068.
MSAKKSPEELKGIFEKYAAKEGDPNQLSKEELKLLLQTEFPSRLKGPSTLDELFEELDKNGDGEVSFEEFQVLVKKISQ [L43R]: the abundance fitness was -0.077 ± 0.066.
Regarding MSAKKSPEELKGIFEKYAAKEGDPNQLSKEELKLLLQTEFPSKLKGPSTLDELFEELDKNGDGEVSFEEFQVLVKKISQ [L43K], the abundance fitness is -0.001 ± 0.078.
Under MSAKKSPEELKGIFEKYAAKEGDPNQLSKEELKLLLQTEFPSDLKGPSTLDELFEELDKNGDGEVSFEEFQVLVKKISQ [L43D] stands -0.119 ± 0.09; under MSAKKSPEELKGIFEKYAAKEGDPNQLSKEELKLLLQTEFPSSLKGPSTLDELFEELDKNGDGEVSFEEFQVLVKKISQ [L43S], 0.023 ± 0.064.
Under MSAKKSPEELKGIFEKYAAKEGDPNQLSKEELKLLLQTEFPSQLKGPSTLDELFEELDKNGDGEVSFEEFQVLVKKISQ [L43Q] stands 0.028 ± 0.078; under MSAKKSPEELKGIFEKYAAKEGDPNQLSKEELKLLLQTEFPSWLKGPSTLDELFEELDKNGDGEVSFEEFQVLVKKISQ [L43W], -0.035 ± 0.078.
With MSAKKSPEELKGIFEKYAAKEGDPNQLSKEELKLLLQTEFPSPLKGPSTLDELFEELDKNGDGEVSFEEFQVLVKKISQ [L43P], the abundance fitness was -0.032 ± 0.073.
MSAKKSPEELKGIFEKYAAKEGDPNQLSKEELKLLLQTEFPSILKGPSTLDELFEELDKNGDGEVSFEEFQVLVKKISQ [L43I]: the abundance fitness was -0.012 ± 0.085.
For MSAKKSPEELKGIFEKYAAKEGDPNQLSKEELKLLLQTEFPSVLKGPSTLDELFEELDKNGDGEVSFEEFQVLVKKISQ [L43V], the abundance fitness was found to be 0.057 ± 0.068.
For the variant MSAKKSPEELKGIFEKYAAKEGDPNQLSKEELKLLLQTEFPSMLKGPSTLDELFEELDKNGDGEVSFEEFQVLVKKISQ [L43M], the abundance fitness worked out at 0.011 ± 0.079.
The same measure for MSAKKSPEELKGIFEKYAAKEGDPNQLSKEELKLLLQTEFPSELKGPSTLDELFEELDKNGDGEVSFEEFQVLVKKISQ [L43E]: 0.105 ± 0.09; for MSAKKSPEELKGIFEKYAAKEGDPNQLSKEELKLLLQTEFPSCLKGPSTLDELFEELDKNGDGEVSFEEFQVLVKKISQ [L43C]: -0.018 ± 0.092; for MSAKKSPEELKGIFEKYAAKEGDPNQLSKEELKLLLQTEFPSTLKGPSTLDELFEELDKNGDGEVSFEEFQVLVKKISQ [L43T]: -0.07 ± 0.069.
Take MSAKKSPEELKGIFEKYAAKEGDPNQLSKEELKLLLQTEFPSYLKGPSTLDELFEELDKNGDGEVSFEEFQVLVKKISQ [L43Y]: the abundance fitness worked out at 0.015 ± 0.078.
Under MSAKKSPEELKGIFEKYAAKEGDPNQLSKEELKLLLQTEFPSHLKGPSTLDELFEELDKNGDGEVSFEEFQVLVKKISQ [L43H] stands -0.034 ± 0.081.
MSAKKSPEELKGIFEKYAAKEGDPNQLSKEELKLLLQTEFPSFLKGPSTLDELFEELDKNGDGEVSFEEFQVLVKKISQ [L43F]: the abundance fitness is -0.02 ± 0.081.
Under MSAKKSPEELKGIFEKYAAKEGDPNQLSKEELKLLLQTEFPSNLKGPSTLDELFEELDKNGDGEVSFEEFQVLVKKISQ [L43N] stands -0.094 ± 0.082.
For the variant MSAKKSPEELKGIFEKYAAKEGDPNQLSKEELKLLLQTEFPSLEKGPSTLDELFEELDKNGDGEVSFEEFQVLVKKISQ [L44E], the abundance fitness is 0.058 ± 0.1.
For the variant MSAKKSPEELKGIFEKYAAKEGDPNQLSKEELKLLLQTEFPSLAKGPSTLDELFEELDKNGDGEVSFEEFQVLVKKISQ [L44A], the abundance fitness is 0.071 ± 0.071.
For MSAKKSPEELKGIFEKYAAKEGDPNQLSKEELKLLLQTEFPSLCKGPSTLDELFEELDKNGDGEVSFEEFQVLVKKISQ [L44C], the abundance fitness was determined as 0.002 ± 0.081.
MSAKKSPEELKGIFEKYAAKEGDPNQLSKEELKLLLQTEFPSLGKGPSTLDELFEELDKNGDGEVSFEEFQVLVKKISQ [L44G]: the abundance fitness is -0.047 ± 0.076.
On to MSAKKSPEELKGIFEKYAAKEGDPNQLSKEELKLLLQTEFPSLDKGPSTLDELFEELDKNGDGEVSFEEFQVLVKKISQ [L44D], for which the abundance fitness stood at 0.033 ± 0.091.
The same measure for MSAKKSPEELKGIFEKYAAKEGDPNQLSKEELKLLLQTEFPSLFKGPSTLDELFEELDKNGDGEVSFEEFQVLVKKISQ [L44F]: -0.006 ± 0.07.
